Experimental data: PMC9701220, “Molecular basis for glycan recognition and reaction priming of eukaryotic oligosaccharyltransferase” (Nature Communications, 2022)
One block for each binder: values may come before it. The star is where a group is joined. 5‑TAMRA = CN(C)c1ccc2c(-c3ccc(C(=O)*)cc3C(=O)[O-])c3ccc(N(C)C)cc3[o+]c2c1

Key:
Conditions in all cases: both partners purified
[1] = molecular target: T1, STT3, catalytic subunit of S. cerevisiae OST (S. cerevisiae, UniProt P39007 1-718); assay: cryo-EM structure; nanodisc-reconstituted OST 2.5 uM incubated with 7.5 uM Dol20-PP-GlcNAc2Man9Glc3 and 500 uM TAMRA-YA(Dab)ATS peptide for 15 min before vitrification; MnCl2 present; the sample gave two states, LLO-bound (3.0 A) and ternary complex (3.1 A)
T1 construct: STT3, catalytic subunit of S. cerevisiae OST; Stood in the assay within the whole OST complex; also called S.c; STT3; source: S. cerevisiae, as a subunit of the purified OST complex (Rho-1D4 antibody Sepharose through OST4-1D4, SEC)
T1 sequence: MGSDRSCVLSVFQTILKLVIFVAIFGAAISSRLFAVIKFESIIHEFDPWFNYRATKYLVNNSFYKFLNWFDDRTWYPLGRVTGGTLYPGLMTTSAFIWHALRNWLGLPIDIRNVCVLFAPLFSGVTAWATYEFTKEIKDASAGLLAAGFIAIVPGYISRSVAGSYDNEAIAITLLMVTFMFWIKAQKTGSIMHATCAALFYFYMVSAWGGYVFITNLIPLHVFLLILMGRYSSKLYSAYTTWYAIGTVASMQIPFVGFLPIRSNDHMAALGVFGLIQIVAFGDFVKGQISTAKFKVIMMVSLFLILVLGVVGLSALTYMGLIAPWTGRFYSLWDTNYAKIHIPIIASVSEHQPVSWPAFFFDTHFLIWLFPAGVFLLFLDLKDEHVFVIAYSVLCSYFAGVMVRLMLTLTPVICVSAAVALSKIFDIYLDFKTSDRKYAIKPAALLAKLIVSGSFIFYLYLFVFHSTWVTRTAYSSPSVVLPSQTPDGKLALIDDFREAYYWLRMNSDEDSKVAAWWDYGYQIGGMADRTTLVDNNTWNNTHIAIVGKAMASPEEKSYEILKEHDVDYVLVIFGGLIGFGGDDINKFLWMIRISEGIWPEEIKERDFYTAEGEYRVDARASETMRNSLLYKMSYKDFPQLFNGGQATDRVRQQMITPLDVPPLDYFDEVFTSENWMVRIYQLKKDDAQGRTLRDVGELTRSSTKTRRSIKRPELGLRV

[2] = molecular target: T2, WBP1, subunit of S. cerevisiae OST (S. cerevisiae, UniProt P33767 21-430); assay: as above
T2 construct: WBP1, non-catalytic subunit of S. cerevisiae OST; Stood in the assay within the whole OST complex; also called WPB1; source: S. cerevisiae, as a subunit of the purified OST complex (Rho-1D4 antibody Sepharose through OST4-1D4, SEC)
T2 sequence (looked up): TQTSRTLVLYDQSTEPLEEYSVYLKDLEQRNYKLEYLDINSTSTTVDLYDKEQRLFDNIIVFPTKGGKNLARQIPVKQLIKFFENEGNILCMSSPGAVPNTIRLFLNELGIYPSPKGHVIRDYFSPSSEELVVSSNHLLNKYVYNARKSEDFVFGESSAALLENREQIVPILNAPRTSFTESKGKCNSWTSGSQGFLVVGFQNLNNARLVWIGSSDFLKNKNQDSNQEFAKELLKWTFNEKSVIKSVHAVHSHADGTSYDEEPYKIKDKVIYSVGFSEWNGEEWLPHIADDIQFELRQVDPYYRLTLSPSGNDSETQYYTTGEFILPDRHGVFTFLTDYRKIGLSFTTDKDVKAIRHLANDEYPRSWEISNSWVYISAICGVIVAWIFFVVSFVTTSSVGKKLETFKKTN

[3] = molecular target: T3, S. cerevisiae oligosaccharyltransferase (OST) complex, OST3-containing (S. cerevisiae, UniProt P39007 1-718; P41543 23-476; Q92316 1-86; P48439 23-350; Q99380 1-36; P46964 …); assay: cryo-EM structure; digitonin-purified OST 18 uM incubated with 500 uM TAMRA-YANATS peptide for 15 min before vitrification, no LLO; the sample gave two states, peptide-bound (2.8 A) and apo (2.9 A)
T3 construct: STT3, catalytic subunit of S. cerevisiae OST; OST1, subunit of S. cerevisiae OST (subcomplex I); OST5, subunit of S. cerevisiae OST (subcomplex I); OST3, oxidoreductase subunit of S. cerevisiae OST (subcomplex II); expressed from the plasmid YEp352-OST3 in an ost6 deletion strain; OST4, subunit of S. cerevisiae OST (subcomplex II); genomic OST4-1D4; OST2, subunit of S. cerevisiae OST (subcomplex …)
T3 sequence (P41543 23-476, chain 2 of 4): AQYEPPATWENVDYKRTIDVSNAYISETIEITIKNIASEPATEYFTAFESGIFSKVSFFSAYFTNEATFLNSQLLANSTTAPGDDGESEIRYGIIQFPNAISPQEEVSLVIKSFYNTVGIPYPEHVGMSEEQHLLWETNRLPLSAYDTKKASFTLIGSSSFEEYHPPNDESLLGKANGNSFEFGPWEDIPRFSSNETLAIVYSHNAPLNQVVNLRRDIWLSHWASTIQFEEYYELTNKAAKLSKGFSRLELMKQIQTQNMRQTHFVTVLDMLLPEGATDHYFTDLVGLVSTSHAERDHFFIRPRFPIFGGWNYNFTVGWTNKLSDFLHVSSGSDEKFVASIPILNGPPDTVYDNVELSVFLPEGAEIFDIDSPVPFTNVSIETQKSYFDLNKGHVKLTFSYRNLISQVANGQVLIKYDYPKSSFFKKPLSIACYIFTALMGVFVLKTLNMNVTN
T3 sequence (Q92316 whole entry, chain 3 of 4): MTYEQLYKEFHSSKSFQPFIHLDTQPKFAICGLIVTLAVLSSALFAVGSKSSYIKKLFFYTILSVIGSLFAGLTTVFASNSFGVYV
T3 sequence (Q99380 whole entry, chain 5 of 4): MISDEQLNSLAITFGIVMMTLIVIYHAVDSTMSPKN
T3 sequence (Q02795 20-286, chain 8 of 4, further chain): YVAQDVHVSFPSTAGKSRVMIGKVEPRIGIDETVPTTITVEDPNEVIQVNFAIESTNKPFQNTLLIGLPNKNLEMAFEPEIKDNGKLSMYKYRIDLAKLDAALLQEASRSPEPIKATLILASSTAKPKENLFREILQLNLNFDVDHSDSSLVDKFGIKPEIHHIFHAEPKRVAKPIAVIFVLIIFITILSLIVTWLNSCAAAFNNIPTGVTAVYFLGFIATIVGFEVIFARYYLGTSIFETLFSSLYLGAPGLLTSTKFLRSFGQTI

- binding result [1]: binds
B1: OST3, subunit of S. cerevisiae OST (natural protein, UniProt P48439 23-350, looked up)
chain: MSSNRLLKLANKSPKKIIPLKDSSFENILAPPHENAYIVALFTATAPEIGCSLCLELESEYDTIVASWFDDHPDAKSSNSDTSIFFTKVNLEDPSKTIPKAFQFFQLNNVPRLFIFKPNSPSILDHSVISISTDTGSERMKQIIQAIKQFSQVNDFSLHLPMDWTPIITSTIITFITVLLFKKQSKLMFSIISSRIIWATLSTFFIICMISAYMFNQIRNTQLAGVGPKGEVMYFLPNEFQHQFAIETQVMVLIYGTLAALVVVLVKGIQFLRSHLYPETKKAYFIDAILASFCALFIYVFFAALTTVFTIKSPAYPFPLLRLSAPFK
notes: OST3, oxidoreductase subunit of S. cerevisiae OST; Stood in the assay within the whole OST complex; source: S. cerevisiae (YEp352-OST3), as a subunit of the purified OST complex (Rho-1D4 antibody Sepharose through OST4-1D4, SEC)

- binding result [2]: binds
B2: OST2, subunit of S. cerevisiae OST (natural protein)
chain: MAKAPKANTPKVTSTSSAVLTDFQETFKTSKRAYFAQIEKYPKLKLIDTFCFFLVLLGVIQCTFIILIRDNFPFNAFLAGFIICVGQFVLLMSLRLQLCNSFPGISKNRAFAEFIVASLILHFVCLHFIN
notes: OST2, non-catalytic subunit of S. cerevisiae OST; Stood in the assay within the whole OST complex; source: S. cerevisiae, as a subunit of the purified OST complex (Rho-1D4 antibody Sepharose through OST4-1D4, SEC)

B3: TAMRA-YANATS-NH2 (peptide)
peptide: {5‑TAMRA}-YANATS-NH2
SMILES: C[C@H](NC(=O)[C@H](Cc1ccc(O)cc1)NC(=O)c1ccc(-c2c3ccc(N(C)C)cc3[o+]c3cc(N(C)C)ccc23)c(C(=O)[O-])c1)C(=O)N[C@@H](CC(N)=O)C(=O)N[C@@H](C)C(=O)N[C@H](C(=O)N[C@@H](CO)C(N)=O)[C@@H](C)O
notes: acceptor substrate of OST; also called 5-TAMRA-YANATS; reactive peptide; source: bought: Genscript
- binding result [3]: binds
